Data taken from the supplement of paper PMC10567573.

Test: protein stability index of a GFP-peptide fusion (GPS, HEK-293T) (PSI 1-6); higher = more stable
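Further: lentivirally expressed fusions sorted by FACS into six bins by GFP to DsRed ratio, PSI derived from sequencing read proportions per bin multiplied by bin number.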

B1: PPP2R2C WT (peptide)
chain: YSSSKGSLRLCDMRAAALCDKHSK
protein stability index (parent: IOH22415_38, c terminus: a fixed tail appended): 1.74

B2: FAM46C WT (peptide)
chain: VRSRLEEAGIKVHDVRLNGSAAGH
protein stability index (parent: IOH22484_10, c terminus: a fixed tail appended): 2.22

B3: FAM46C WT (peptide)
chain: FDHLQNRLIATKNPEEIRGGGLLK
protein stability index (parent: IOH22484_38, c terminus: a fixed tail appended): 3.8

B4: POMT2 WT (peptide)
chain: VKYNSCADRPFSAPWWFWLSLTGV
protein stability index (parent: IOH22744_36, c terminus: a fixed tail appended): 2.7

B5: POMT2 WT (peptide)
chain: YHEAPMTRKHYQVTGYGINGTGDS
protein stability index (parent: IOH22744_72, c terminus: a fixed tail appended): 2.29

B6: POMT2 WT (peptide)
chain: VLRSRIRFIHLVTGCVLGSSGKVL
protein stability index (parent: IOH22744_79, c terminus: a fixed tail appended): 2.76

B7: POMT2 WT (peptide)
chain: LRGGGQVLLGWTLHYFPFFLMGRV
protein stability index (parent: IOH22744_107, c terminus: a fixed tail appended): 2.33

B8: FBXO39 WT (peptide)
chain: PSRVHASEVESAVWYVKKFGRYLE
protein stability index (parent: IOH22759_12, c terminus: a fixed tail appended): 2.26

B9: FBXO39 WT (peptide)
chain: RVFKARIYTNRYETNEEDKTLQEI
protein stability index (parent: IOH22759_67, c terminus: a fixed tail appended): 2.51

B10: TNNI2 WT (peptide)
chain: DWRKNIEEKSGMEGRKKMFESES
protein stability index (parent: IOH23107_29, c terminus: native): 2.45

B11: SCARA5 WT (peptide)
chain: VTEDLRLKDWEHSIALRNISLAKG
protein stability index (parent: IOH23227_48, c terminus: a fixed tail appended): 3.31

B12: RHOBTB2 WT (peptide)
chain: HHHHGRDFLLRAASFDVCESVDEA
protein stability index (parent: IOH23244_56, c terminus: a fixed tail appended): 3.72

B13: RHOBTB2 WT (peptide)
chain: LYTGELDENERDLMHIAHIAELLE
protein stability index (parent: IOH23244_73, c terminus: a fixed tail appended): 2.54

B14: RHOBTB2 WT (peptide)
chain: NQEITKAFHVRRTNRVKECLAKGT
protein stability index (parent: IOH23244_80, c terminus: a fixed tail appended): 3.11

B15: WDR41 WT (peptide)
chain: HVGELIIWDALDWTMQAYERNFWD
protein stability index (parent: IOH25728_41, c terminus: a fixed tail appended): 2.32

B16: WDR41 WT (peptide)
chain: WTMQAYERNFWDPSPQLDTQQEIK
protein stability index (parent: IOH25728_43, c terminus: a fixed tail appended): 2.62

B17: SLC35F2 WT (peptide)
chain: QYLAERYKVNTPMLQSFINYCLLF
protein stability index (parent: IOH25755_11, c terminus: a fixed tail appended): 2.35

B18: SLC35F2 WT (peptide)
chain: FVAFALCMFCLYSFMPLVIKVTSA
protein stability index (parent: IOH25755_45, c terminus: a fixed tail appended): 2.87

B19: SLC35F2 WT (peptide)
chain: SFMPLVIKVTSATSVNLGILTADL
protein stability index (parent: IOH25755_47, c terminus: a fixed tail appended): 2.79

B20: C9orf25 WT (peptide)
chain: LARKGSLKNGSMGSPVNQQPKKNN
protein stability index (parent: IOH25834_6, c terminus: a fixed tail appended): 4.65

B21: RHOBTB3 WT (peptide)
chain: GGADIIVIKYNVNDKFSFHEVKDN
protein stability index (parent: IOH25836_16, c terminus: a fixed tail appended): 2.19

B22: RHOBTB3 WT (peptide)
chain: STTEGIQLAKELGATYLELHSLDD
protein stability index (parent: IOH25836_27, c terminus: a fixed tail appended): 3.48

B23: RHOBTB3 WT (peptide)
chain: KVVEAHKIVLCAVSHVFMLLFNVK
protein stability index (parent: IOH25836_45, c terminus: a fixed tail appended): 2.49

B24: RHOBTB3 WT (peptide)
chain: VSHVFMLLFNVKSPTDIQDSSIIR
protein stability index (parent: IOH25836_47, c terminus: a fixed tail appended): 2.27

B25: RHOBTB3 WT (peptide)
chain: DSCCPAGIFQAMCLLICAEMYQVS
protein stability index (parent: IOH25836_81, c terminus: a fixed tail appended): 3.09

B26: RHOBTB3 WT (peptide)
chain: QLQSMPSRELASMNLDIVDLLKKA
protein stability index (parent: IOH25836_87, c terminus: a fixed tail appended): 3.28

B27: ADD1 WT (peptide)
chain: GEGTGSPPKWQIGEQEFEALMRML
protein stability index (parent: IOH25868_61, c terminus: a fixed tail appended): 3.11

B28: ADD1 WT (peptide)
chain: FASDGDSGTCSPLRHSFQKQQREK
protein stability index (parent: IOH25868_71, c terminus: a fixed tail appended): 3.71

B29: ADD1 WT (peptide)
chain: LRHSFQKQQREKTRWLNSGRGDEA
protein stability index (parent: IOH25868_73, c terminus: a fixed tail appended): 3.66

B30: KCTD10 WT (peptide)
chain: SSKEEQKLIATSNKPAVKLLYNRS
protein stability index (parent: IOH25947_25, c terminus: a fixed tail appended): 4.05

B31: PSD2 WT (peptide)
chain: PLMGETQERERVLTHFSRRYCQCN
protein stability index (parent: IOH26041_63, c terminus: a fixed tail appended): 3.06

B32: PSD2 WT (peptide)
chain: LTHFSRRYCQCNPDDSTSEDGIHT
protein stability index (parent: IOH26041_65, c terminus: a fixed tail appended): 3.23

B33: TRIM15 WT (peptide)
chain: LSQMGAQSSGKILLCPLCQEEEQA
protein stability index (parent: IOH26053_8, c terminus: a fixed tail appended): 3.51

B34: TRIM15 WT (peptide)
chain: QSSGKILLCPLCQEEEQAETPMAP
protein stability index (parent: IOH26053_9, c terminus: a fixed tail appended): 3.3

B35: TRIM15 WT (peptide)
chain: LLARLRELEQQIWKERDEYITKVS
protein stability index (parent: IOH26053_32, c terminus: a fixed tail appended): 1.67

B36: PRAME WT (peptide)
chain: KKLKIFAMPMQDIKMILKMVQLDS
protein stability index (parent: IOH26126_36, c terminus: a fixed tail appended): 2.56

B37: FCHO1 WT (peptide)
chain: DKLALCHLELTRKLQDLIKDVLRY
protein stability index (parent: IOH26137_14, c terminus: a fixed tail appended): 2.73

B38: FCHO1 WT (peptide)
chain: HLELTRKLQDLIKDVLRYGEEQLK
protein stability index (parent: IOH26137_15, c terminus: a fixed tail appended): 2.46

B39: FCHO1 WT (peptide)
chain: FTSSPSPFSSSSPENVEDSGLDSP
protein stability index (parent: IOH26137_77, c terminus: a fixed tail appended): 1.88

B40: FCHO1 WT (peptide)
chain: FSDPSQSDPETKDFWLNMAALTEA
protein stability index (parent: IOH26137_117, c terminus: a fixed tail appended): 2.84

B41: ANKRD17 WT (peptide)
chain: EVLRRLTSSVSCALDEAAAALTRM
protein stability index (parent: IOH26350_34, c terminus: a fixed tail appended): 1.95

B42: ANKRD17 WT (peptide)
chain: EMVRFLLEAGADQEHKTDEMHTAL
protein stability index (parent: IOH26350_70, c terminus: a fixed tail appended): 2.65

B43: TAF7L WT (peptide)
chain: PDVENEVKRLLRSDAEAVSTRWEV
protein stability index (parent: IOH26414_44, c terminus: a fixed tail appended): 3.49

B44: FANCE WT (peptide)
chain: AQVLMLGQILELPWKEETFLVLQS
protein stability index (parent: IOH26415_73, c terminus: a fixed tail appended): 2.44

B45: NETO1 WT (peptide)
chain: GFSPIIGRFCGQQNPPVIKSSGRF
protein stability index (parent: IOH26431_19, c terminus: a fixed tail appended): 2.17

B46: NETO1 WT (peptide)
chain: KTSLLDQLTNTSGTVIGVTSCIVI
protein stability index (parent: IOH26431_56, c terminus: a fixed tail appended): 3.09

B47: KLHDC10 WT (peptide)
chain: CPIIRIPNRFLRGHRPPPARSGHR
protein stability index (parent: IOH26494_13, c terminus: a fixed tail appended): 1.87

B48: KLHDC10 WT (peptide)
chain: FGGTGIPFGESNGNGVHVCNVKYK
protein stability index (parent: IOH26494_29, c terminus: a fixed tail appended): 2.05

B49: KLHDC10 WT (peptide)
chain: PSLLELAWEKLLAAFPNLANLSRT
protein stability index (parent: IOH26494_68, c terminus: a fixed tail appended): 2.3

B50: EHMT1 WT (peptide)
chain: EEINKNISDFGRQQLLPPFPSLHQ
protein stability index (parent: IOH26527_40, c terminus: a fixed tail appended): 2.94

B51: EHMT1 WT (peptide)
chain: FHKDCASRVNNASYCPHCGEESSK
protein stability index (parent: IOH26527_103, c terminus: a fixed tail appended): 3.47

B52: EHMT1 WT (peptide)
chain: SARQGELQKVLLMLVDGIDPNFKM
protein stability index (parent: IOH26527_125, c terminus: a fixed tail appended): 1.73

B53: DFFB WT (peptide)
chain: TLVEAIKEQDGREVDWEYFYGLLF
protein stability index (parent: IOH26584_46, c terminus: a fixed tail appended): 1.91
